Laboratory results reported in article PMC10209032, “Molecular determinants for Rous sarcoma virus intasome assemblies involved in retroviral integration”.

Columns and labels:
[1] = molecular target: Rous sarcoma virus integrase IN (1–286) R244A (Rous sarcoma virus (Prague A)); assay: not stated; oligomeric state of free purified IN proteins, without DNA; shown in Fig. S5, method and conditions not given
[2] = molecular target: Rous sarcoma virus integrase IN (1–286) Y246A (Rous sarcoma virus (Prague A)); assay: as above
[3] = molecular target: Rous sarcoma virus (RSV) integrase, WT full-length IN (1–286 aa), Prague A (Rous sarcoma virus (Prague A)); assay: as above
[4] = molecular target: Rous sarcoma virus integrase IN (1–278), C-terminal tail truncation (Rous sarcoma virus (Prague A)); assay: cryo-EM structure; STC intasome assembled from IN (1–278) 35 μM and the viral/target DNA substrate 10 μM by dialysis, purified by SEC in 20 mM HEPES pH 7.5, 650 mM NaCl, 1 mM TCEP; single particle, C2 symmetry, 3.36 Å; the IN oligomer stands on two DNA substrates
[5] = molecular target: Rous sarcoma virus integrase IN (1–286) R244E (Rous sarcoma virus (Prague A)); assay: not stated; oligomeric state of free purified IN proteins, without DNA; shown in Fig. S5, method and conditions not given
RSV IN (1-278) = molecular target: T1, RSV IN (1-278) (Rous sarcoma virus, Prague A, UniProt P03354 1281-1558); assay: cryo-EM (3.36 A); SEC; Zn2+ and Mg2+ listed in structure table; octameric STC; STC (IN 1-278, cryo-EM prep): 35 uM IN + 10 uM DNA in 20 mM HEPES pH 7.5, 1 M NaCl, 20% glycerol, 1 mM TCEP, dialyzed to 0.125 M NaCl, solubilized at 0.75 M NaCl; SEC in 20 mM HEPES pH 7.5, 650 mM NaCl, 1 mM TCEP. Mutant STC 18 h at 4 C; CSC with MK-2048 18 h at 18 C (buffer not in material); conditions: protein: recombinant; chain copies: 8; branched; S2 pairs with S1[1-20] leaving 5' AA unpaired; S3 pairs with S1[27-42]; self-complementary S1[21-26]; GTGCAC pairs two copies; 2 copies of each strand in STC
T1 sequence: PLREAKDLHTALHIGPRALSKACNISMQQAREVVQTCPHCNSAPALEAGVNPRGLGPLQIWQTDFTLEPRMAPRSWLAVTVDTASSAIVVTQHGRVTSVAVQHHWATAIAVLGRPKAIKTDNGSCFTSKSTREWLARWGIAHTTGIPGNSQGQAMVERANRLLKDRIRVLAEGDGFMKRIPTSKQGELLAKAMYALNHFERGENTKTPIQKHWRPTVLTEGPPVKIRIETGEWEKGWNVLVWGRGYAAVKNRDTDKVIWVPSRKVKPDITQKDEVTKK

Rous sarcoma virus integrase IN (1–286) R244A (enzyme)
stoichiometry N [1]: 2

Rous sarcoma virus integrase IN (1–286) Y246A (enzyme)
stoichiometry N [2]: 2

Rous sarcoma virus (RSV) integrase, WT full-length IN (1–286 aa), Prague A (enzyme)
stoichiometry N [3]: 2

Rous sarcoma virus integrase IN (1–278), C-terminal tail truncation (enzyme)
stoichiometry N [4]: 8

Rous sarcoma virus integrase IN (1–286) R244E (enzyme)
stoichiometry N [5]: 2

B1: RSV STC substrate (viral/target DNA) (mixed)
DNA 1: GAGTATTGCATAAGACAACAGTGCACGAAAGAAGAAGACACT
DNA 2: AATGTTGTCTTATGCAATACTC
DNA 3: AGTGTCTTCTTCTTTC
binding result (RSV IN (1-278)): binds
